Data published in US20250339569A1 (3B PHARMACEUTICALS, published 2025).
Starred links: 1 amine or outer side, 2 acyl side, 3 side chain; linkers in the order of their positions; H or OH if unused. Positions of bridges follow the written chain, without caps; N, C: chain ends. Non-standard residues stand in square brackets, D forms with d. Primed or numbered codes have the meaning given here. No end group written: not given here. *: point of attachment. Aph(CCprAc) = 4-aminophenylalanine acylated on the ring amine with 1-cyano-1-cyclopropanecarboxylic acid, N#CC1(C(=O)Nc2ccc(C[C@H](N[*:1])C(=O)[*:2])cc2)CC1; Aph(SaPr) = 4-amino-L-phenylalanine, ring amine acylated by 3-sulfamoylpropanoic acid, NS(=O)(=O)CCC(=O)Nc1ccc(C[C@H](N[*:1])C(=O)[*:2])cc1; Aph(2Thz) = 4-aminophenylalanine with 1,3-thiazole-2-carbonyl on the ring amine, O=C(Nc1ccc(C[C@H](N[*:1])C(=O)[*:2])cc1)c1nccs1; Aph(Iva) = 4-aminophenylalanine acylated on the ring amine with isovaleric acid, CC(C)CC(=O)Nc1ccc(C[C@H](N[*:1])C(=O)[*:2])cc1; Aph(FAc) = 4-aminophenylalanine acylated on the ring amine with fluoroacetic acid, O=C(CF)Nc1ccc(C[C@H](N[*:1])C(=O)[*:2])cc1; Aph(Prp) = 4-aminophenylalanine acylated on the ring amine with propionic acid, CCC(=O)Nc1ccc(C[C@H](N[*:1])C(=O)[*:2])cc1; 3MeBn = 3-methylbenzylidene (m-xylene unit) bridging two Cys S atoms via thioethers, from alpha,alpha'-dibromo-m-xylene; Aph(iNic) = 4-aminophenylalanine with isonicotinoyl on the ring amine, O=C(Nc1ccc(C[C@H](N[*:1])C(=O)[*:2])cc1)c1ccncc1; Aph(Bz) = 4-aminophenylalanine with benzoyl on the ring amine, O=C(Nc1ccc(C[C@H](N[*:1])C(=O)[*:2])cc1)c1ccccc1; Af3(DkpAc) = 3-amino-L-phenylalanine acylated on the ring amine with 2-(3,6-dioxopiperazin-2-yl)acetic acid; DOTA(Lu) = O=C1CN2CCN3CCN(CC(=O)*)CCN(CC2)CC(=O)[O][Lu]([O]1)[O]C(=O)C3; Phe(3-NHCO(CH2)3SO2NH2) = N[C@@H](Cc1cccc(NC(=O)CCCS(N)(=O)=O)c1)C(=O)O; APAc″ = 2-(4-(amino)piperidin-1-yl)acetic acid, NC1CCN(CC(=O)*)CC1; DOTA = O=C(O)CN1CCN(CC(=O)O)CCN(CC(=O)*)CCN(CC(=O)O)CC1; Pyridine(3,5-bisCH2) = c1ncc(C[*:2])cc1C[*:1]; Acetyl(2-(piperazin-1-yl)) = O=C(CN1CCNCC1)*; mXylylene = c1cc(C[*:1])cc(C[*:2])c1; N6iQui = not defined here; Dab = NCC[C@H](N)C(=O)O; Thp = NC1(C(=O)O)CCOCC1; Dap = NC[C@H](N)C(=O)O

Key:
[1] = molecular target: T1, human carbonic anhydrase 9 (CAIX) (human, UniProt Q16790 38-459); assay: FACS competition on HT-29 cells, competitor tracer 3BP-2776; category C = pIC50 6.1-7.0
Experimental: (§1) CAIX-expressing human HT-29 colorectal cancer cells (DSMZ, RRID: CVCL_0320) were cultured in McCoys's 5A modified medium (Biochrom, #F1015) including 10% fetal calf serum (FCS), 2 mM L-glutamine, 100 U/ml penicillin and 100 μg/mL streptomycin. Cells were detached with Accutase (Biolegend, #423201) and washed in FACS buffer (PBS including 1% FCS). Cells were diluted in FACS buffer to a final concentration of 500.000 cells per ml. 200 μL of the cell suspension were transferred to a u-shaped non-binding 96-well plate (Greiner) and cells were washed in ice-cold FACS buffer.
(§2) When biotinylated compounds were used an additional incubation step with 1 μg/mL APC-Streptavidin (Miltenyi; #130-106-791) in 50 μL FACS buffer for 30 minutes on ice was performed.
(§3) Cells were washed twice with ice-cold FACS buffer and analyzed in an Attune NxT flow cytometer (Thermo Fisher). Median fluorescence intensities (MFI) of the APC/Cy5-channel were calculated by Attune NxT software.

[2] = molecular target: T2, human carbonic anhydrase 14 (CAXIV), biotinylated (Sino Biological Cat #10458-H08H) (human, UniProt Q9ULX7 16-290, biotinylated (sites not given)); assay: SPR (Biacore T200), biotinylated CAXIV captured with Biotin CAPture Kit; limit of the category in which no binding is told
T2 construct: Bought protein, biotinylated and captured with the Biotin CAPture Kit; also called hCAXIV-bio; carbonic anhydrase XIV
T2 sequence (Q9ULX7 16-290 limits assumed): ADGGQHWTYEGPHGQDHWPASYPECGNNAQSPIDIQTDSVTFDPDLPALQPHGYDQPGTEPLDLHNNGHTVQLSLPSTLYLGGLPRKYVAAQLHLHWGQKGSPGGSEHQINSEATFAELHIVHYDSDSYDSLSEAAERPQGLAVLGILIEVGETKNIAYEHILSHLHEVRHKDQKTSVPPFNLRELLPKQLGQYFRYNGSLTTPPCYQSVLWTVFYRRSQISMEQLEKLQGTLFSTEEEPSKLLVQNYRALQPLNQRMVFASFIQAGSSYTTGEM

[3] = molecular target: T3, human carbonic anhydrase 12 (CAXII), biotinylated (Sino Biological Cat #10617-H08H) (human, UniProt O43570 25-301, biotinylated (sites not given)); assay: SPR (Biacore T200), biotinylated CAXII captured with Biotin CAPture Kit; limit of the category in which no binding is told
T3 construct: Bought protein, biotinylated and captured with the Biotin CAPture Kit; also called hCAXII-bio; carbonic anhydrase XII
T3 sequence (O43570 25-301 limits assumed): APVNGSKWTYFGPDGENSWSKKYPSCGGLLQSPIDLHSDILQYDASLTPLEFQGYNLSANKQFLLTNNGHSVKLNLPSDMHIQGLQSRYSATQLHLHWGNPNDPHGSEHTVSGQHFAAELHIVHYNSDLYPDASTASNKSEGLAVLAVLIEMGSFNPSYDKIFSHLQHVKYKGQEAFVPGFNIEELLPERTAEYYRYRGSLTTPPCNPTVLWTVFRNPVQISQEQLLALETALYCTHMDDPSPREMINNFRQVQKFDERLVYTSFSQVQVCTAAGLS

[4] = molecular target: T4, human carbonic anhydrase 4 (CAIV), biotinylated (Sino Biological Cat #10472-H08H) (human, UniProt P22748 19-283, biotinylated (sites not given)); assay: SPR (Biacore T200), biotinylated CAIV captured with Biotin CAPture Kit; limit of the category in which no binding is told
T4 construct: Bought protein, biotinylated and captured with the Biotin CAPture Kit; also called hCAIV-bio; carbonic anhydrase IV
T4 sequence (P22748 19-283 limits assumed): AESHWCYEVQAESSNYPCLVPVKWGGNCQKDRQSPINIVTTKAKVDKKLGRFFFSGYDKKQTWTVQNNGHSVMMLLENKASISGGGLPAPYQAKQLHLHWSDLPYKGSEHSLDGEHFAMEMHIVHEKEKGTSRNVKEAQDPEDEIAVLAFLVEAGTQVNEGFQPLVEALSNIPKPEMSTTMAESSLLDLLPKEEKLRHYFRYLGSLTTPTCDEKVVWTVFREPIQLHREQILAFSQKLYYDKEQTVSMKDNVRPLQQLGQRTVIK

[5] = molecular target: T1, human carbonic anhydrase 9 (CAIX); assay: FACS competition on HT-29 cells, competitor tracer 3BP-4149; category C = pIC50 6.1-7.0
Experimental: as §1, §2, §3

| Binder | pIC50 [1] | pKD [2] | pKD [3] | pKD [4] | also measured |
| --- | --- | --- | --- | --- | --- |
| Ac-VYCE[dP]KW[Thp]EWSC-NH2 (linker 3-12 via mXylylene; lactam 6-9; SMILES CC(=O)N[C@H](C(=O)N[C@@H](Cc1ccc(O)cc1)C(=O)N[C@H]1CSCc2cccc(c2)CSC[C@@H](C(N)=O)NC(=O)[C@H](CO)NC(=O)[C@H](Cc2c[nH]c3ccccc23)NC(=O)[C@@H]2CCC(=O)NCCCC[C@H](NC(=O)[C@H]3CCCN3C(=O)[C@H](CCC(=O)O)NC1=O)C(=O)N[C@@H](Cc1c[nH]c3ccccc13)C(=O)NC1(CCOCC1)C(=O)N2)C(C)C) [3BP-3962] | 6.1 to 7 pic50 | – | – | – | – |
| {DOTA-APAc″}-VYCE[dP]D[Aph(Bz)]LTWSC-NH2 (linker 3-12 via mXylylene) [3BP-4171] | 6.1 to 7 pic50 | – | – | – | – |
| QCE[dP]D[Phe(3-NHCO(CH2)3SO2NH2)]LTWSC-NH2 (linker 2-11 via mXylylene; not fully specified (N-terminus); printed as LuDOTA-PPAc-Gln-[Cys(3MeBn)-Glu-pro-Asp-Af3(Cpsu)-Leu-Thr-Trp-Ser-Cys]-NH2; also: lutetium complexed in DOTA, also called natLu-DPI-4452) [3BP-4555: LuDOTA-PPAc-Gln-[Cys(3MeBn)-Glu-pro-Asp-Af3(Cpsu)-Leu-Thr-Trp-Ser-Cys]-NH2] | – | < 6 | < 6 | < 6 | – |
| Ac-VYCE[dP]DWLKWSC-NH2 (linker 3-12 via mXylylene; lactam 4-9; SMILES CC(=O)N[C@H](C(=O)N[C@@H](Cc1ccc(O)cc1)C(=O)N[C@H]1CSCc2cccc(c2)CSC[C@@H](C(N)=O)NC(=O)[C@H](CO)NC(=O)[C@H](Cc2c[nH]c3ccccc23)NC(=O)[C@@H]2CCCCNC(=O)CC[C@H](NC1=O)C(=O)N1CCC[C@@H]1C(=O)N[C@@H](CC(=O)O)C(=O)N[C@@H](Cc1c[nH]c3ccccc13)C(=O)N[C@@H](CC(C)C)C(=O)N2)C(C)C) [3BP-3899] | 6.1 to 7 pic50 | – | – | – | – |
| {DOTA-APAc″}-VYCE[dP]E(N6iQui)WLTWSC-NH2 (linker 3-12 via mXylylene; reading uncertain) [3BP-4328] | – | – | – | – | pIC50 [5]: 6.1 to 7 pic50 |
| {DOTA-APAc″}-VYCE[dP]D[Aph(FAc)]LTWSC-NH2 (linker 3-12 via mXylylene) [3BP-4358] | – | – | – | – | pIC50 [5]: 6.1 to 7 pic50 |
| {DOTA-APAc″}-VDCE[dP]DWLTW[Dap]C-NH2 (lactam 2-11; linker 3-12 via mXylylene, Bicyclic peptide with uncomplexed DOTA; also called DPI-4174) [3BP-4174: DOTA-APAc-Val-{Asp-[Cys(3MeBn)-Glu-pro-Asp-Trp-Leu-Thr-Trp-Dap}-Cys]-NH2] | – | < 6 | < 6 | < 6 | – |
| {DOTA(Lu)}-QCE[dP]D[Aph(SaPr)]LTWSC-NH2 (linker 2-11 via mXylylene; also: DOTA complexing non-radioactive lutetium, also called natLu-3BP-4501) [3BP-4581: LuDOTA-Gln-[Cys(3MeBn)-Glu-pro-Asp-Aph(SaPr)-Leu-Thr-Trp-Ser-Cys]-NH2] | – | < 6 | < 6 | < 6 | – |
| {DOTA-APAc″}-VYCE[dP]D[Aph(Prp)]LTWSC-NH2 (linker 3-12 via mXylylene) [3BP-4347] | – | – | – | – | pIC50 [5]: 6.1 to 7 pic50 |
| {DOTA-APAc″}-VYCE[dP]D[Aph(CCprAc)]LTWSC-NH2 (linker 3-12 via mXylylene) [3BP-4357] | – | – | – | – | pIC50 [5]: 6.1 to 7 pic50 |
| {DOTA-APAc″}-VYCE[dP]D[Af3(DkpAc)]LTWSC-NH2 (linker 3-12 via mXylylene) [3BP-4288] | – | – | – | – | pIC50 [5]: 6.1 to 7 pic50 |
| {DOTA-Acetyl(2-(piperazin-1-yl))}-QCE[dP]D[Phe(3-NHCO(CH2)3SO2NH2)]LTWSC-NH2 (linker 2-11 via 3MeBn, Cyclic peptide with uncomplexed DOTA; also called DPI-4452) [3BP-4452: DOTA-PPAc-Gln-[Cys(3MeBn)-Glu-pro-Asp-Af3(Cpsu)-Leu-Thr-Trp-Ser-Cys]-NH2] | – | < 6 | < 6 | < 6 | – |
| Ac-VYCE[dP][Dab]WLDWSC-NH2 (linker 3-12 via mXylylene; lactam 6-9; SMILES CC(=O)N[C@H](C(=O)N[C@@H](Cc1ccc(O)cc1)C(=O)N[C@H]1CSCc2cccc(c2)CSC[C@@H](C(N)=O)NC(=O)[C@H](CO)NC(=O)[C@H](Cc2c[nH]c3ccccc23)NC(=O)[C@@H]2CC(=O)NCC[C@H](NC(=O)[C@H]3CCCN3C(=O)[C@H](CCC(=O)O)NC1=O)C(=O)N[C@@H](Cc1c[nH]c3ccccc13)C(=O)N[C@@H](CC(C)C)C(=O)N2)C(C)C) [3BP-4050] | 6.1 to 7 pic50 | – | – | – | – |
| {DOTA-APAc″}-VYCE[dP]D[Aph(Iva)]LTWSC-NH2 (linker 3-12 via mXylylene) [3BP-4348] | – | – | – | – | pIC50 [5]: 6.1 to 7 pic50 |

The next lines start with results.

| pIC50 [1] | pKD [2] | pKD [3] | pKD [4] | Binder | also measured |
| --- | --- | --- | --- | --- | --- |
| 6.1 to 7 pic50 | – | – | – | {DOTA-APAc″}-VYCE[dP]D[Aph(2Thz)]LTWSC-NH2 (linker 3-12 via mXylylene) [3BP-4180] | – |
| 6.1 to 7 pic50 | – | – | – | Ac-VYCE[dP]KWL[dD]WSC-NH2 (linker 3-12 via mXylylene; lactam 6-9; SMILES CC(=O)N[C@H](C(=O)N[C@@H](Cc1ccc(O)cc1)C(=O)N[C@H]1CSCc2cccc(c2)CSC[C@@H](C(N)=O)NC(=O)[C@H](CO)NC(=O)[C@H](Cc2c[nH]c3ccccc23)NC(=O)[C@H]2CC(=O)NCCCC[C@H](NC(=O)[C@H]3CCCN3C(=O)[C@H](CCC(=O)O)NC1=O)C(=O)N[C@@H](Cc1c[nH]c3ccccc13)C(=O)N[C@@H](CC(C)C)C(=O)N2)C(C)C) [3BP-4043] | – |
| – | < 6 | < 6 | < 6 | {DOTA-APAc″}-VYCE[dP]DWLTWSC-NH2 (linker 3-12 via mXylylene, Cyclic peptide with uncomplexed DOTA; also called DPI-3583) [3BP-3583: DOTA-APAc-Val-Tyr-[Cys(3MeBn)-Glu-pro-Asp-Trp-Leu-Thr-Trp-Ser-Cys]-NH2] | – |
| – | < 6 | < 6 | < 6 | {DOTA}-QCE[dP]D[Aph(SaPr)]LTWSC-NH2 (linker 2-11 via mXylylene; SMILES CC(C)C[C@@H]1NC(=O)[C@H](Cc2ccc(NC(=O)CCS(N)(=O)=O)cc2)NC(=O)[C@H](CC(=O)O)NC(=O)[C@H]2CCCN2C(=O)[C@H](CCC(=O)O)NC(=O)[C@@H](NC(=O)[C@H](CCC(N)=O)NC(=O)CN2CCN(CC(=O)O)CCN(CC(=O)O)CCN(CC(=O)O)CC2)CSCc2cccc(c2)CSC[C@@H](C(N)=O)NC(=O)[C@H](CO)NC(=O)[C@H](Cc2c[nH]c3ccccc23)NC(=O)[C@H]([C@@H](C)O)NC1=O, Cyclic peptide with uncomplexed DOTA; also called DPI-4501) [3BP-4501: DOTA-Gln-[Cys(3MeBn)-Glu-pro-Asp-Aph(SaPr)-Leu-Thr-Trp-Ser-Cys]-NH2] | – |
| 6.1 to 7 pic50 | – | – | – | {DOTA-APAc″}-VYCE[dP]DWLTWSC-NH2 (linker 3-12 via Pyridine(3,5-bisCH2)) [3BP-4141] | – |
| 6.1 to 7 pic50 | – | – | – | {DOTA-APAc″}-VYCE[dP]D[Aph(iNic)]LTWSC-NH2 (linker 3-12 via mXylylene) [3BP-4183] | – |
| – | < 6 | < 6 | < 6 | {DOTA}-ECE[dP]D[Phe(3-NHCO(CH2)3SO2NH2)]LTW[Dap]C-NH2 (lactam 1-10; linker 2-11 via mXylylene, Bicyclic peptide with uncomplexed DOTA; also called DPI-4503) [3BP-4503: DOTA-{Glu-[Cys(3MeBn)-Glu-pro-Asp-Af3(Cpsu)-Leu-Thr-Trp-Dap}-Cys]-NH2] | – |
